B1: Zinc finger homeobox protein 4, residues 2562 to 2617; numbered along this chain, Q86UP3 (parent)
chain: RLRTTITPEQLEILYEKYLLDSNPTRKMLDHIAREVGLKKRVVQVWFQNTRARERK

± gives the uncertainty stated by the source.

This data set covers variants of B1. Nature of the data set: abundance fitness (aPCA) (normalised: wild type 0, dead -1); higher = more abundant; growth selection in yeast, the domain comes from the species named. The note with it: Homo sapiens.
Take RLRTTITPEQLEILYEKYLLDSNPTRKMLDHIARNVGLKKRVVQVWFQNTRARERK [E35N]: the abundance fitness was -0.358 ± 0.14. Consider RLRTTITPEQLEILYEKYLLDSNPTRKMLDHIARHVGLKKRVVQVWFQNTRARERK [E35H], for which the abundance fitness was -0.302 ± 0.13. In the case of RLRTTITPEQLEILYEKYLLDSNPTRKMLDHIARGVGLKKRVVQVWFQNTRARERK [E35G], the abundance fitness is -0.258 ± 0.066. With RLRTTITPEQLEILYEKYLLDSNPTRKMLDHIARFVGLKKRVVQVWFQNTRARERK [E35F], the abundance fitness was -0.564 ± 0.094.

Turning to RLRTTITPEQLEILYEKYLLDSNPTRKMLDHIARRVGLKKRVVQVWFQNTRARERK [E35R], the abundance fitness is -0.654 ± 0.066.

RLRTTITPEQLEILYEKYLLDSNPTRKMLDHIARCVGLKKRVVQVWFQNTRARERK [E35C]: the abundance fitness is -0.393 ± 0.081. For RLRTTITPEQLEILYEKYLLDSNPTRKMLDHIARDVGLKKRVVQVWFQNTRARERK [E35D], the abundance fitness was -0.278 ± 0.12.

Take RLRTTITPEQLEILYEKYLLDSNPTRKMLDHIARWVGLKKRVVQVWFQNTRARERK [E35W]: the abundance fitness was -0.597 ± 0.11.

For the variant RLRTTITPEQLEILYEKYLLDSNPTRKMLDHIARAVGLKKRVVQVWFQNTRARERK [E35A], the abundance fitness was -0.235 ± 0.057. As for RLRTTITPEQLEILYEKYLLDSNPTRKMLDHIARLVGLKKRVVQVWFQNTRARERK [E35L], the abundance fitness is -0.25 ± 0.083. Under RLRTTITPEQLEILYEKYLLDSNPTRKMLDHIARQVGLKKRVVQVWFQNTRARERK [E35Q] stands -0.283 ± 0.12; under RLRTTITPEQLEILYEKYLLDSNPTRKMLDHIARMVGLKKRVVQVWFQNTRARERK [E35M], -0.279 ± 0.1; under RLRTTITPEQLEILYEKYLLDSNPTRKMLDHIARTVGLKKRVVQVWFQNTRARERK [E35T], -0.254 ± 0.1. For RLRTTITPEQLEILYEKYLLDSNPTRKMLDHIARVVGLKKRVVQVWFQNTRARERK [E35V], the abundance fitness was -0.306 ± 0.081. Consider RLRTTITPEQLEILYEKYLLDSNPTRKMLDHIARSVGLKKRVVQVWFQNTRARERK [E35S], for which the abundance fitness was -0.158 ± 0.059. Consider RLRTTITPEQLEILYEKYLLDSNPTRKMLDHIARYVGLKKRVVQVWFQNTRARERK [E35Y], for which the abundance fitness is -0.493 ± 0.18. RLRTTITPEQLEILYEKYLLDSNPTRKMLDHIARIVGLKKRVVQVWFQNTRARERK [E35I]: the abundance fitness is -0.163 ± 0.094.

Consider RLRTTITPEQLEILYEKYLLDSNPTRKMLDHFAREVGLKKRVVQVWFQNTRARERK [I32F], for which the abundance fitness is -0.377 ± 0.18. As to RLRTTITPEQLEILYEKYLLDSNPTRKMLDHEAREVGLKKRVVQVWFQNTRARERK [I32E], the abundance fitness is -0.998 ± 0.18. With RLRTTITPEQLEILYEKYLLDSNPTRKMLDHWAREVGLKKRVVQVWFQNTRARERK [I32W], the abundance fitness is -0.23 ± 0.12. On to RLRTTITPEQLEILYEKYLLDSNPTRKMLDHQAREVGLKKRVVQVWFQNTRARERK [I32Q], for which the abundance fitness is -1.24 ± 0.27. For the variant RLRTTITPEQLEILYEKYLLDSNPTRKMLDHKAREVGLKKRVVQVWFQNTRARERK [I32K], the abundance fitness is -0.796 ± 0.24. In the case of RLRTTITPEQLEILYEKYLLDSNPTRKMLDHVAREVGLKKRVVQVWFQNTRARERK [I32V], the abundance fitness was -0.204 ± 0.055. As for RLRTTITPEQLEILYEKYLLDSNPTRKMLDHYAREVGLKKRVVQVWFQNTRARERK [I32Y], the figure is -0.208 ± 0.085.

For the variant RLRTTITPEQLEILYEKYLLDSNPTRKMLDHTAREVGLKKRVVQVWFQNTRARERK [I32T], the abundance fitness was -0.405 ± 0.076.

As to RLRTTITPEQLEILYEKYLLDSNPTRKMLDHLAREVGLKKRVVQVWFQNTRARERK [I32L], the abundance fitness is -0.15 ± 0.069. In the case of RLRTTITPEQLEILYEKYLLDSNPTRKMLDHSAREVGLKKRVVQVWFQNTRARERK [I32S], the abundance fitness is -1.27 ± 0.32. RLRTTITPEQLEILYEKYLLDSNPTRKMLDHCAREVGLKKRVVQVWFQNTRARERK [I32C]: the abundance fitness was -0.518 ± 0.072. For the variant RLRTTITPEQLEILYEKYLLDSNPTRKMLDHGAREVGLKKRVVQVWFQNTRARERK [I32G], the abundance fitness is -0.945 ± 0.16. Turning to RLRTTITPEQLEILYEKYLLDSNPTRKMLDHAAREVGLKKRVVQVWFQNTRARERK [I32A], the abundance fitness is -0.786 ± 0.18. Take RLRTTITPEQLEILYEKYLLDSNPTRKMLDHRAREVGLKKRVVQVWFQNTRARERK [I32R]: the abundance fitness was -1.08 ± 0.12. As for RLRTTITPEQLEILYEKYLLDSNPTRKMLDHMAREVGLKKRVVQVWFQNTRARERK [I32M], the figure is -0.366 ± 0.15. In the case of RLRTTITPEQLEILYEKYLLDSNPTRKMLLHIAREVGLKKRVVQVWFQNTRARERK [D30L], the abundance fitness is -0.296 ± 0.069. As for RLRTTITPEQLEILYEKYLLDSNPTRKMLRHIAREVGLKKRVVQVWFQNTRARERK [D30R], the figure is -0.144 ± 0.078; as for RLRTTITPEQLEILYEKYLLDSNPTRKMLIHIAREVGLKKRVVQVWFQNTRARERK [D30I], -0.056 ± 0.29; as for RLRTTITPEQLEILYEKYLLDSNPTRKMLHHIAREVGLKKRVVQVWFQNTRARERK [D30H], -0.269 ± 0.15. As for RLRTTITPEQLEILYEKYLLDSNPTRKMLMHIAREVGLKKRVVQVWFQNTRARERK [D30M], the abundance fitness is -0.352 ± 0.088.

For RLRTTITPEQLEILYEKYLLDSNPTRKMLTHIAREVGLKKRVVQVWFQNTRARERK [D30T], the abundance fitness was 0.002 ± 0.089. RLRTTITPEQLEILYEKYLLDSNPTRKMLGHIAREVGLKKRVVQVWFQNTRARERK [D30G]: the abundance fitness is -0.052 ± 0.062. Take RLRTTITPEQLEILYEKYLLDSNPTRKMLSHIAREVGLKKRVVQVWFQNTRARERK [D30S]: the abundance fitness was -0.062 ± 0.077. On to RLRTTITPEQLEILYEKYLLDSNPTRKMLFHIAREVGLKKRVVQVWFQNTRARERK [D30F], for which the abundance fitness is -0.372 ± 0.068.

On to RLRTTITPEQLEILYEKYLLDSNPTRKMLQHIAREVGLKKRVVQVWFQNTRARERK [D30Q], for which the abundance fitness was -0.102 ± 0.092.

As for RLRTTITPEQLEILYEKYLLDSNPTRKMLYHIAREVGLKKRVVQVWFQNTRARERK [D30Y], the abundance fitness was determined as 0.003 ± 0.17. As for RLRTTITPEQLEILYEKYLLDSNPTRKMLVHIAREVGLKKRVVQVWFQNTRARERK [D30V], the abundance fitness is -0.292 ± 0.074. Consider RLRTTITPEQLEILYEKYLLDSNPTRKMLEHIAREVGLKKRVVQVWFQNTRARERK [D30E], for which the abundance fitness was -0.088 ± 0.064. As for RLRTTITPEQLEILYEKYLLDSNPTRKMLWHIAREVGLKKRVVQVWFQNTRARERK [D30W], the figure is -0.173 ± 0.087; as for RLRTTITPEQLEILYEKYLLDSNPTRKMLPHIAREVGLKKRVVQVWFQNTRARERK [D30P], -0.579 ± 0.22.
